Several values for one entry are separate records, joined by “and”; a condition that tells them apart may be missing. Equal values may be shown once. Read-outs that look alike come from different tables or passages of the source.
How the values were obtained:
[1] = system: affinity purified β2GPI-dependent antiphospholipid antibody; experiment: Competitive inhibition ELISA: recombinant β2GPI proteins compete for antibody binding to coated full length recombinant β2GPI; parameters: species or system human; settings: for IC50: read-out: 50% (concentration to give 50% inhibition)
Method in brief: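 Wells coated with full-length recombinant β2GPI (10 μg/ml, pH 9.5) and milk-blocked. Serially diluted recombinant β2GPI proteins were co-incubated with a fixed concentration of patient antibody for 1 h at 37 °C. Bound IgG detected with alkaline phosphatase anti-human IgG at OD550; percent inhibition is background-corrected against inhibitor-free wells.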

[2] = system: affinity purified β2GPI-dependent antiphospholipid antibody; experiment: Direct binding ELISA, nickel chelate-coated wells charged with recombinant β2GPI proteins (no cardiolipin); parameters: species or system human; settings: O.D. at 550 nm
Method in brief: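 His-tagged recombinant β2GPI mutants captured on nickel chelate wells in serial dilution (2 h, room temperature), no anionic phospholipid; GST-6his as negative control. Affinity-purified patient antibodies (11 patients) or rabbit anti-β2GPI detected by alkaline phosphatase anti-IgG, OD 550 nm.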

[3] = system: rabbit anti-β2GPI; experiment: Direct binding ELISA, nickel chelate-coated wells, rabbit antibody; settings: O.D. at 550 nm
Experimental: Nickel Chelate-coated microwell plates (NCP 010 00 Xenopore Corp. 374 Midland Ave. Saddle Brook, N.J. USA) were coated with 50 μl of serial dilutions of the various recombinant β2GPI, in PBS, at room temperature for 2 hours. The plates were washed three times with PBS and blocked with 75 μl of a 1% gelatin (Sigma #G-2500) in PBS for one hour room temperature. […] The plates were washed three times with PBS, 50 μl of alkaline phosphatase conjugated anti-immunoglobulin (anti-human IgG, gamma chain specific, Zymed #62-8422) or anti-rabbit IgG (Zymed #62-6122) diluted appropriately in 1% gelatin was added and incubated at 37° C. for one hour. The plates were washed three times with PBS, 50 μl of alkaline phosphatase PPMP chromogenic substrate solution was added and incubated for 30 minutes at room temperature. The optical density, at 550 nm, was determined by reading the plates in a microplate autoreader (Bio-Teck Instruments, model EL311).
Seven to nine different recombinant β2GPI mutant proteins were examined to determine if they could support the direct binding of affinity purified β2GPI-dependent antiphospholipid antibody preparations in the absence of anionic phospholipid. All recombinant mutant β2GPI were assayed with affinity purified β2GPI-dependent antiphospholipid antibody preparations from 11 different patients. Each mutant recombinant β2GPI protein was tested, in a dose dependent fashion and GST-6his was included as a negative control. The recombinant mutant β2GPI proteins were bound to nickel coated microtiter plates via their 6-his tail. All recombinant mutant β2GPI proteins tested bound rabbit anti-β2GPI showing that they were assessable by antibody (FIG. 5).

B1: 1----: recombinant β2GPI protein with domain 1 only (SEQ ID NO:4 region), His6 tail (protein)
chain: GRTCPKPDDLPFSTVVPLKTFYEPGEEITYSCKPGYVSRGGMRKFICPLTGLWPINTLKCTPRVGHHHHHH
Max (maximum inhibition observed at concentrations tested) ([1]; Ab 6203): 60%
Max (maximum inhibition observed at concentrations tested) ([1]; Ab 6203, listed as 1 - - - -): 20%
IC50 ([1]; Ab 6203): > 10 µM
Max (maximum inhibition observed at concentrations tested) ([1]; Ab 6501): 70%
Max (maximum inhibition observed at concentrations tested) ([1]; Ab 6501, listed as 1 - - - -): 30%
IC50 ([1]; Ab 6501, listed as 1 - - - -): > 10 µM
Max (maximum inhibition observed at concentrations tested) ([1]; Ab 6626): 85%
Max (maximum inhibition observed at concentrations tested) ([1]; Ab 6626, listed as 1 - - - -): 50%
IC50 ([1]; Ab 6626, listed as 1 - - - -): > 10 µM
IC50 ([1]; Ab 6626): 8 µM and > 10 µM
Max (maximum inhibition observed at concentrations tested) ([1]; Ab 6632): 90%
Max (maximum inhibition observed at concentrations tested) ([1]; Ab 6632, listed as 1 - - - -): 70%
IC50 ([1]; Ab 6632, listed as 1 - - - -): 3 µM
IC50 ([1]; Ab 6632): 8 µM
Max (maximum inhibition observed at concentrations tested) ([1]; Ab 6641): 98%
IC50 ([1]; Ab 6641): > 10 µM
Max (maximum inhibition observed at concentrations tested) ([1]; Ab 6644): 90%
Max (maximum inhibition observed at concentrations tested) ([1]; Ab 6644, listed as 1 - - - -): 45%
IC50 ([1]; Ab 6644, listed as 1 - - - -): > 10 µM
IC50 ([1]; Ab 6644): 8 µM and > 10 µM
Max (maximum inhibition observed at concentrations tested) ([1]; Ab 6701): 80%
IC50 ([1]; Ab 6701): 4 µM
Max (maximum inhibition observed at concentrations tested) ([1]; Ab 7008): 70%
Max (maximum inhibition observed at concentrations tested) ([1]; Ab 7008, listed as 1 - - - -): 40%
IC50 ([1]; Ab 7008): > 10 µM
Max (maximum inhibition observed at concentrations tested) ([1]; Ab 7015): 90%
Max (maximum inhibition observed at concentrations tested) ([1]; Ab 7015, listed as 1 - - - -): 30%
IC50 ([1]; Ab 7015, listed as 1 - - - -): > 10 µM
IC50 ([1]; Ab 7015): 8 µM and > 10 µM
Max (maximum inhibition observed at concentrations tested) ([1]; Ab 7101): 70%
Max (maximum inhibition observed at concentrations tested) ([1]; Ab 7101, listed as 1 - - - -): 20%
IC50 ([1]; Ab 7101, listed as 1 - - - -): > 10 µM
IC50 ([1]; Ab 7101): 8 µM and > 10 µM
Max (maximum inhibition observed at concentrations tested) ([1]; Ab 7104): 90%
IC50 ([1]; Ab 7104): 0.8 µM
Maximum O.D. ([2]; Ab 6203): 1.029
Maximum O.D. ([2]; Ab 6501): 0.911
Maximum O.D. ([2]; Ab 6626): 0.560
Maximum O.D. ([2]; Ab 6632): 0.351
Maximum O.D. ([2]; Ab 6641): 0.252
Maximum O.D. ([2]; Ab 6644): 0.493
Maximum O.D. ([2]; Ab 6652): 0.262
Maximum O.D. ([2]; Ab 6701): 0.388
Maximum O.D. ([2]; Ab 7008): 0.195
Maximum O.D. ([2]; Ab 7015): 1.102
Maximum O.D. ([2]; Ab 7101): 0.804
Maximum O.D. [3]: 1.9737

B2: recombinant β2GPI domain 5 with GlyHis6 (----5) (protein)
chain: GRASCKLPVKKATVVYQGERVKIQEKFKNGMLHGDKVSFFCKNKEKKCSYTEDAQCIDGTIEVPKCFKEHSSLAFWKTDASDVKPCGHHHHHH
Max (maximum inhibition observed at concentrations tested) ([1]; Ab 6203): 5%
IC50 ([1]; Ab 6203): > 47 µM
Max (maximum inhibition observed at concentrations tested) ([1]; Ab 6501): 10%
IC50 ([1]; Ab 6501): > 47 µM
Max (maximum inhibition observed at concentrations tested) ([1]; Ab 6509): 10%
IC50 ([1]; Ab 6509): > 47 µM
Max (maximum inhibition observed at concentrations tested) ([1]; Ab 6626): 10%
IC50 ([1]; Ab 6626): > 47 µM
Max (maximum inhibition observed at concentrations tested) ([1]; Ab 6632): 10%
IC50 ([1]; Ab 6632): > 47 µM
Max (maximum inhibition observed at concentrations tested) ([1]; Ab 6641): 10%
IC50 ([1]; Ab 6641): > 47 µM
Max (maximum inhibition observed at concentrations tested) ([1]; Ab 6644): 10%
IC50 ([1]; Ab 6644): > 47 µM
Max (maximum inhibition observed at concentrations tested) ([1]; Ab 6652): 15%
IC50 ([1]; Ab 6652): > 47 µM
Max (maximum inhibition observed at concentrations tested) ([1]; Ab 6701): 10%
IC50 ([1]; Ab 6701): > 47 µM
Max (maximum inhibition observed at concentrations tested) ([1]; Ab 7008): 20%
IC50 ([1]; Ab 7008): > 47 µM
Max (maximum inhibition observed at concentrations tested) ([1]; Ab 7015): 10%
IC50 ([1]; Ab 7015): > 47 µM
Max (maximum inhibition observed at concentrations tested) ([1]; Ab 7101): 5%
IC50 ([1]; Ab 7101): > 47 µM
Max (maximum inhibition observed at concentrations tested) ([1]; Ab 7104): 0%
IC50 ([1]; Ab 7104): > 47 µM
Maximum O.D. ([2]; Ab 6203): 0.044
Maximum O.D. ([2]; Ab 6501): 0.004
Maximum O.D. ([2]; Ab 6626): 0.028
Maximum O.D. ([2]; Ab 6632): 0.013
Maximum O.D. ([2]; Ab 6641): 0.018
Maximum O.D. ([2]; Ab 6644): 0.017
Maximum O.D. ([2]; Ab 6652): 0.012
Maximum O.D. ([2]; Ab 6701): 0.000
Maximum O.D. ([2]; Ab 7008): 0.007
Maximum O.D. ([2]; Ab 7015): 0.078
Maximum O.D. ([2]; Ab 7101): 0.078
Maximum O.D. [3]: 1.663

B3: 12345: recombinant full length human β2GPI (domains 1-5) with C-terminal GlyHis6, baculovirus expressed (protein)
chain: GRTCPKPDDLPFSTVVPLKTFYEPGEEITYSCKPGYVSRGGMRKFICPLTGLWPINTLKCTPRVCPFAGILENGAVRYTTFEYPNTISFSCNTGFYLNGADSAKCTEEGKWSPELPVCAPIICPPPSIPTFATLRVYKPSAGNNSLYRDTAVFECLPQHAMFGNDTITCTTHGNWTKLPECREVKCPFPSRPDNGFVNYPAKPTLYYKDKATFGCHDGYSLDGPEEIECTKLGNWSAMPSCKASCKLPVKKATVVYQGERVKIQEKFKNGMLHGDKVSFFCKNKEKKCSYTEDAQCIDGTIEVPKCFKEHSSLAFWKTDASDVKPCGHHHHHH
Max (maximum inhibition observed at concentrations tested) ([1]; Ab 6203): 75%
IC50 ([1]; Ab 6203): 0.8 µM
Max (maximum inhibition observed at concentrations tested) ([1]; Ab 6501): 80%
IC50 ([1]; Ab 6501): 0.2 µM
Max (maximum inhibition observed at concentrations tested) ([1]; Ab 6509): 70%
IC50 ([1]; Ab 6509): 0.1 µM
Max (maximum inhibition observed at concentrations tested) ([1]; Ab 6626): 80%
IC50 ([1]; Ab 6626): 0.3 µM
Max (maximum inhibition observed at concentrations tested) ([1]; Ab 6632): 90%
IC50 ([1]; Ab 6632): 0.8 µM
Max (maximum inhibition observed at concentrations tested) ([1]; Ab 6641): 96%
IC50 ([1]; Ab 6641): 0.1 µM
Max (maximum inhibition observed at concentrations tested) ([1]; Ab 6644): 90%
IC50 ([1]; Ab 6644): 0.2 µM
Max (maximum inhibition observed at concentrations tested) ([1]; Ab 6652): 95%
IC50 ([1]; Ab 6652): 0.8 µM
Max (maximum inhibition observed at concentrations tested) ([1]; Ab 6701): 100%
IC50 ([1]; Ab 6701): 0.1 µM
Max (maximum inhibition observed at concentrations tested) ([1]; Ab 7008): 90%
IC50 ([1]; Ab 7008): 0.2 µM
Max (maximum inhibition observed at concentrations tested) ([1]; Ab 7015): 90%
IC50 ([1]; Ab 7015): 0.2 µM
Max (maximum inhibition observed at concentrations tested) ([1]; Ab 7101): 80%
IC50 ([1]; Ab 7101): 0.8 µM
Max (maximum inhibition observed at concentrations tested) ([1]; Ab 7104): 90%
IC50 ([1]; Ab 7104): 0.8 µM
Maximum O.D. ([2]; Ab 6203): 1.270
Maximum O.D. ([2]; Ab 6501): 1.772
Maximum O.D. ([2]; Ab 6626): 1.527
Maximum O.D. ([2]; Ab 6632): 1.419
Maximum O.D. ([2]; Ab 6641): 2.555
Maximum O.D. ([2]; Ab 6644): 1.848
Maximum O.D. ([2]; Ab 6652): 0.640
Maximum O.D. ([2]; Ab 6701): 0.948
Maximum O.D. ([2]; Ab 7008): 1.380
Maximum O.D. ([2]; Ab 7015): 1.864
Maximum O.D. ([2]; Ab 7101): 1.257
Maximum O.D. [3]: 2.065

From patent US6858210B1, “Therapeutic and diagnostic domain 1 β2GPI polypeptides and methods of using same” (La Jolla Pharmaceutical Co., priority 1998, dated 2005)
